According to patent publication US20220031820:

T1: recombinant syndecan-1
T1 sequence (P18827 whole entry, species assumed, looked up): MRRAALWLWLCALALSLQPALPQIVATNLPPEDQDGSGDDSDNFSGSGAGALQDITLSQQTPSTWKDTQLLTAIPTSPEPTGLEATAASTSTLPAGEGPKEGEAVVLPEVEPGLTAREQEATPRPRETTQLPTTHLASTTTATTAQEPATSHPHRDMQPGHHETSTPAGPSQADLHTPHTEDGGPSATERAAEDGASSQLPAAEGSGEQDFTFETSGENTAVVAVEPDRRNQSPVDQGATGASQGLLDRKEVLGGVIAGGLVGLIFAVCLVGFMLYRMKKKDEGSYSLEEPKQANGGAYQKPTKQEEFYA

B1: recombinant GzmK (in vitro syndecan-1 cleavage assay) (enzyme, UniProt P49863 27-264, looked up, species assumed)
Granzyme K: IIGGKEVSPHSRPFMASIQYGGHHVCGGVLIDPQWVLTAAHCQYRFTKGQSPTVVLGAHSLSKNEASKQTLEIKKFIPFSRVTSDPQSNDIMLVKLQTAAKLNKHVKMLHIRSKTSLRSGTKCKVTGWGATDPDSLRPSDTLREVTVTVLSRKLCNSQSYYNGDPFITKDMVCAGDAKGQKDSCKGDSGGPLICKGVFHAIVSGGHECGVATKPGIYTLLTKKYQTWIKSNLVPPHTN
B2: recombinant GzmA (enzyme, UniProt P12544 29-262, looked up, species assumed)
Granzyme A: IIGGNEVTPHSRPYMVLLSLDRKTICAGALIAKDWVLTAAHCNLNKRSQVILGAHSITREEPTKQIMLVKKEFPYPCYDPATREGDLKLLQLMEKAKINKYVTILHLPKKGDDVKPGTMCQVAGWGRTHNSASWSDTLREVNITIIDRKVCNDRNHYNFNPVIGMNMVCAGSLRGGRDSCNGDSGSPLLCEGVFRGVTSFGLENKCGDPRGPGVYILLSKKHLNWIIMTIKGAV

Test system: T1, recombinant syndecan-1

Protein | in vitro syndecan-1 cleavage assay (coomassie gel); GzmK 500 nM, syndecan-1 0.7 ug | in vitro syndecan-1 cleavage assay (coomassie gel); GzmA 500 nM, syndecan-1 0.7 ug
B1 | syndecan-1 was cleaved by all three granzymes | –
B2 | – | syndecan-1 was cleaved by all three granzymes
